In patent publication US20150177248:

Molecular target: T1, acetylated p53 peptide (p53-382/diAc), P04637
T1 chain: RHKK

B1: SIRT7 (sirtuin 7) protein (protein)
chain: MAAGGLSRSERKAAERVRRLREEQQRERLRQVSRILRKAAAERSAEEGRLLAESADLVTELQGRSRRREGLKRRQEEVCDDPEELRGKVRELASAVRNAKYLVVYTGAGISTAASIPDYRGPNGVWTLLQKGRSVSAADLSEAEPTLTHMSITRLHEQKLVQHVVSQNCDGLHLRSGLPRTAISELHGNMYIEVCTSCVPNREYVRVFDVTERTALHRHQTGRTCHKCGTQLRDTIVHFGERGTLGQPLNWEAATEAASRADTILCLGSSLKVLKKYPRLWCMTKPPSRRPKLYIVNLQWTPKDDWAALKLHGKCDDVMRLLMAELGLEIPAYSRWQDPIFSLATPLRAGEEGSHSRKSLCRSREEAPPGDRGAPLSSAPILGGWFGRGCTKRTKRKKVT
**Q.** How did the deacetylation activity turn out when B1 was run?
**A.** The deacetylation activity was “significantly increased”.
